Measured values published in article PMC10897158.

Assays:
Details in all cases: remark: other sources report otherwise
[1] = target: T1, E2 ubiquitin-conjugating enzyme USE1 (endogenous, wild type) (human (endogenous in HEK293T, human fibroblasts and iPSC-derived neurons)), Q9H832; assay: FRET or BRET; FLIM-FRET (two-photon FLIM) in iPSC-derived autonomic neurons of healthy controls; endogenous USE1 (donor, Alexa 488) and UBA6 (acceptor, Alexa 555); lifetime of donor only minus donor and acceptor
T1 chain: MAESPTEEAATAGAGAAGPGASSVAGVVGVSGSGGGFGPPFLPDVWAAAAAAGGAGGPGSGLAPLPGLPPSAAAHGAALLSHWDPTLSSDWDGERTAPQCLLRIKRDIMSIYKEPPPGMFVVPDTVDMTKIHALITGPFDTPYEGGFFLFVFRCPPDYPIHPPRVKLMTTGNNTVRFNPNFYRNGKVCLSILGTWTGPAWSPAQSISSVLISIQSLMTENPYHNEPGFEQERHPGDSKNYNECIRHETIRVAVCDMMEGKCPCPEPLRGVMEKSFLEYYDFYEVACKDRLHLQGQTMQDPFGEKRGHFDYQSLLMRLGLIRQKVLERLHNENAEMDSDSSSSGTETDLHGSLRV

[2] = target: T1, E2 ubiquitin-conjugating enzyme USE1 …; assay: FRET or BRET; FLIM-FRET (two-photon FLIM) in iPSC-derived autonomic neurons of CCHS patients (PHOX2B polyalanine expansion); endogenous USE1 (donor, Alexa 488) and UBA6 (acceptor, Alexa 555); lifetime of donor only minus donor and acceptor
[3] = target: T1, E2 ubiquitin-conjugating enzyme USE1 …; assay: FRET or BRET; FLIM-FRET (two-photon FLIM) in fixed WT and USE1 ΔPolyAla KO HEK293T cells; endogenous USE1 and UBA6 stained, secondary antibodies Alexa 488 (donor, USE1) and Alexa 555 (acceptor, UBA6); lifetime of donor only minus donor and acceptor

difference in fluorescence lifetime (donor only minus donor and acceptor) [1]: 0.253
difference in fluorescence lifetime (donor only minus donor and acceptor) [2]: 0.025
difference in fluorescence lifetime (donor only to donor and acceptor) [3]: 0.099 ns
B1: E1 ubiquitin-activating enzyme UBA6 (endogenous), A0AVT1 1-1052 (enzyme)
chain: MEGSEPVAAHQGEEASCSSWGTGSTNKNLPIMSTASVEIDDALYSRQRYVLGDTAMQKMAKSHVFLSGMGGLGLEIAKNLVLAGIKAVTIHDTEKCQAWDLGTNFFLSEDDVVNKRNRAEAVLKHIAELNPYVHVTSSSVPFNETTDLSFLDKYQCVVLTEMKLPLQKKINDFCRSQCPPIKFISADVHGIWSRLFCDFGDEFEVLDTTGEEPKEIFISNITQANPGIVTCLENHPHKLETGQFLTFREINGMTGLNGSIQQITVISPFSFSIGDTTELEPYLHGGIAVQVKTPKTVFFESLERQLKHPKCLIVDFSNPEAPLEIHTAMLALDQFQEKYSRKPNVGCQQDSEELLKLATSISETLEEKPDVNADIVHWLSWTAQGFLSPLAAAVGGVASQEVLKAVTGKFSPLCQWLYLEAADIVESLGKPECEEFLPRGDRYDALRACIGDTLCQKLQNLNIFLVGCGAIGCEMLKNFALLGVGTSKEKGMITVTDPDLIEKSNLNRQFLFRPHHIQKPKSYTAADATLKINSQIKIDAHLNKVCPTTETIYNDEFYTKQDVIITALDNVEARRYVDSRCLANLRPLLDSGTMGTKGHTEVIVPHLTESYNSHRDPPEEEIPFCTLKSFPAAIEHTIQWARDKFESSFSHKPSLFNKFWQTYSSAEEVLQKIQSGHSLEGCFQVIKLLSRRPRNWSQCVELARLKFEKYFNHKALQLLHCFPLDIRLKDGSLFWQSPKRPPSPIKFDLNEPLHLSFLQNAAKLYATVYCIPFAEEDLSADALLNILSEVKIQEFKPSNKVVQTDETARKPDHVPISSEDERNAIFQLEKAILSNEATKSDLQMAVLSFEKDDDHNGHIDFITAASNLRAKMYSIEPADRFKTKRIAGKIIPAIATTTATVSGLVALEMIKVTGGYPFEAYKNCFLNLAIPIVVFTETTEVRKTKIRNGISFTIWDRWTVHGKEDFTLLDFINAVKEKYGIEPTMVVQGVKMLYVPVMPGHAKRLKLTMHKLVKPTTEKKYVDLTVSFAPDIDGDEDLPGPPVRYYFSHDTD
